Reference: article PMC5030135 (Nature chemical biology, 2016)

Molecular target: GDI.Cdc42 FLARE biosensor, wild type (Cdc42 with an N-terminal FRET binding antenna) (UniProt P60953 1-191)
Assay: FRET or BRET

GDI.Cdc42 FLARE biosensor, wild type (Cdc42 with an N-terminal FRET binding antenna), sequence (P60953 whole entry): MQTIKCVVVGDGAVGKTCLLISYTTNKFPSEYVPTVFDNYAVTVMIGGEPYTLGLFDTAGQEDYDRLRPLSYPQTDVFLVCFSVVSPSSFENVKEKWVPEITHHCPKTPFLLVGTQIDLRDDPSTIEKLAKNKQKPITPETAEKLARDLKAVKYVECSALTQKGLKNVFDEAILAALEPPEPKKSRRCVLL

B1: RhoGDI1 (RhoGDIα), wild type, unlabeled, co-expressed in excess (natural protein)
chain: MAEQEPTAEQLAQIAAENEEDEHSVNYKPPAQKSIQEIQELDKDDESLRKYKEALLGRVAVSADPNVPNVVVTGLTLVCSSAPGPLELDLTGDLESFKKQSFVLKEGVEYRIKISFRVNREIVSGMKYIQHTYRKGVKIDKTDYMVGSYGPRAEEYEFLTPVEEAPKGMLARGSYSIKSRFTDDDKTDHLSWEWNLTIKKDWKD
For B1, the “increase in FRET/CFP emission ratio” value was 218%.
